Patent publication US20250277030A1 (Zymeworks, published 2025)

B1: v38591 humanized anti-NaPi2b antibody (antibody, human IgG1, kappa)
heavy: not shown
light: DVQMTQSPSSLSASVGDRVTITCRASQDVYSYLNWYQQKPGKAVKLLIYYTSRLQSGVPSRFSGSGSGTDYTLTISSLQPEDFATYYCQQYNIFPWTFGQGTKLEIKRTVAAPSVFIFPPSDEQLKSGTASVVCLLNNFYPREAKVQWKVDNALQSGNSQESVTEQDSKDSTYSLSSTLTLSKADYEKHKVYACEVTHQGLSSPVTKSFNRGEC
notes: also called humanized v38591 anti-NaPi2b (SLC34A2) variant
B2: v22277, palivizumab (anti-RSV) negative control (antibody, human IgG1, kappa)
heavy 1: GQVTLRESGPALVKPTQTLTLTCTFSGFSLSTSGMSVGWIRQPPGKALEWLADIWWDDKKDYNPSLKSRLTISKDTSKNQVVLKVTNMDPADTATYYCARSMITNWYFDVWGAGTTVTVSSASTKGPSVFPLAPSSKSTSGGTAALGCLVKDYFPEPVTVSWNSGALTSGVHTFPAVLQSSGLYSLSSVVTVPSSSLGTQTYICNVNHKPSNTKVDKKVEPKSCDKTHTCPPCPAPELLGGPSVFLFPPKPKDTLMISRTPEVTCVVVDVSHEDPEVKFNWYVDGVEVHNAKTKPREEQYNSTYRVVSVLTVLHQDWLNGKEYKCKVSNKALPAPIEKTISKAKGQPREPQVYVYPPSRDELTKNQVSLTCLVKGFYPSDIAVEWESNGQPENNYKTTPPVLDSDGSFALVSKLTVDKSRWQQGNVFSCSVMHEALHNHYTQKSLSLSPG
heavy 2: not shown
light: GDIQMTQSPSTLSASVGDRVTITCKSQLSVGYMHWYQQKPGKAPKLLIYDTSKLASGVPSRFSGSGSGTEFTLTISSLQPDDFATYYCFQGSGYPFTFGGGTKLEIKRTVAAPSVFIFPPSDEQLKSGTASVVCLLNNFYPREAKVQWKVDNALQSGNSQESVTEQDSKDSTYSLSSTLTLSKADYEKHKVYACEVTHQGLSSPVTKSFNRGEC
notes: Heterodimeric Fc form of palivizumab (clones CL_#11009, CL_#11010, CL_#16635); also called neg control

Experiments:
[1] = target: T1, human sodium-dependent phosphate transporter 2B (NaPi2b) (human, UniProt O95436 1-690); test: flow cytometry, IGROV-1 cells (endogenous NaPi2b); apparent Kd
T1 construct: UniProt ID is given as 095436 [sic]; also called hNaPi2b; Hu NaPi2b
T1 sequence: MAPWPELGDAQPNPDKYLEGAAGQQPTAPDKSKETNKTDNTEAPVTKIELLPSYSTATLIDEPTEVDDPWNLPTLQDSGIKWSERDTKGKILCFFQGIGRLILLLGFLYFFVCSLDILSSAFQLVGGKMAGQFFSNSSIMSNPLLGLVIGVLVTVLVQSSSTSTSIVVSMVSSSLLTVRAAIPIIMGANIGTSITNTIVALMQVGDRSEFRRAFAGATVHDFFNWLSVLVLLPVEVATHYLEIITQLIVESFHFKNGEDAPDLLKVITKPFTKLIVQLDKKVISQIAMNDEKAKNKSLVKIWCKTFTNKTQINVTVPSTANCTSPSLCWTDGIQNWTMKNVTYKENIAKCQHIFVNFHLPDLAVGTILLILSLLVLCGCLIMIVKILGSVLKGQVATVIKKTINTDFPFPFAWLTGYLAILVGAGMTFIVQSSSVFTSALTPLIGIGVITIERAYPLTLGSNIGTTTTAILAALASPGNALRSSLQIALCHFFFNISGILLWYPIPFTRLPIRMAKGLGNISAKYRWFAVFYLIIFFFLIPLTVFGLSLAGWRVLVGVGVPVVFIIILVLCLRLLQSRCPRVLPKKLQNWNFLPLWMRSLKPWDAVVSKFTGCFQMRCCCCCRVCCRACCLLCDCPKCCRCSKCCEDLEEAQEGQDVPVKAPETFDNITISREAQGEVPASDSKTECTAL
Procedure: (§1) Briefly, cells were seeded at 50,000 cells/well in conical-bottom 96-well plates and treated with test antibody for 24 hours at 4° C. to prevent internalization. […] Following incubation, cells were washed and stained with anti-Human IgG Fc AF647 conjugate (Jackson Immuno Research Labs, West Grove, PA; Cat. No. 109-605-098) at 4° C. for 30 min. Following incubation and washing, fluorescence was detected by flow cytometry on a BD LSRFortessa™ Cell Analyzer (BD Biosciences, Franklin Lake, NJ) with 1,000 minimum events collected per well. The AF647/APC-A GeoMean (fluorescence signal geometric mean, proportional to anti-Human AF647 binding) was calculated for the live cell population using FlowJo™ Version 10.8.1 (BD Biosciences, Franklin Lake, NJ) and plotted for each test antibody using GraphPad Prism Version 9 (GraphPad Software, San Diego, CA).
(§2) The ability of the humanized antibody variants v38591 and v29456 to bind to NaPi2b expressed on cells was assessed on endogenous NaPi2b-expressing tumor cell lines IGROV-1 (ovarian adenocarcinoma) and TOV-21G (ovarian carcinoma) by flow cytometry.
(§3) Cellular binding was performed according to methods described in Example 13.

[2] = target: T1, human sodium-dependent phosphate …; test: flow cytometry on TOV-21G cells (endogenous NaPi2b), 24 h at 4 C, anti-human IgG Fc AF647 detection
Procedure: as §1, §2, §3

[3] = target: T1, human sodium-dependent phosphate …; test: flow cytometry on IGROV-1 cells (endogenous NaPi2b), 24 h at 4 C, anti-human IgG Fc AF647 detection
Procedure: as §1, §2, §3

FcgR1A = target: T2, FcgR1A (human, UniProt P12314 16-374); test: Membrane Proteome Array screen, flow cytometry on HEK293T cells each expressing one of over 6000 human membrane proteins
T2 construct: whole, on cells
T2 sequence (P12314 16-374): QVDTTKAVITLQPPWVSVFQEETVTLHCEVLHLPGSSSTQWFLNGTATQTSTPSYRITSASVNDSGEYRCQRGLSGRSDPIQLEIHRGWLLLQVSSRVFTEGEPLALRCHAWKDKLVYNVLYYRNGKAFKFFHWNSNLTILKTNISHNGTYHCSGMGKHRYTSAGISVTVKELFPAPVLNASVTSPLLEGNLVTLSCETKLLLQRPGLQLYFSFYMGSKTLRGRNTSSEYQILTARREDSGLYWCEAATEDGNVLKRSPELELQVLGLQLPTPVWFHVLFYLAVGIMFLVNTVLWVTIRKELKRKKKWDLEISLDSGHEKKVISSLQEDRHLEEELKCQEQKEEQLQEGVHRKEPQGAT
Procedure: Briefly, the study consisted of three phases: phase (1) determination of assay screening conditions, phase (2) membrane proteome array (library) screen and phase (3) protein target validation. […] In phase (3), each protein target hit from the screen stage (potential off-target interactions) was assessed in titration experiment using flow cytometry.

[4] = target: T1, human sodium-dependent phosphate …; test: flow cytometry, HEK293-6e cells transfected with human NaPi2b; apparent Kd
Procedure: The binding cross-reactivity of humanized antibody variant v38591 to human NaPi2b, NaPi2a, and NaPi2c was assessed by flow cytometry using HEK293-6e transfected cells.
Following transfection, cells were seeded at 50,000 cells/well in conical-bottom 96-well plates and treated with test antibody for 24 hours at 4° C. to prevent internalization. Following incubation, cells were washed and stained with anti-Human IgG Fc AF647 conjugate (Jackson Immuno Research Labs, West Grove, PA; Cat. No. 109-605-098) or anti-Rabbit IgG F(ab″)2 AF647 conjugate (Jackson Immuno Research Labs, West Grove, PA; Cat. No. 111-605-047). Following incubation and washing, fluorescence was detected by flow cytometry on a BD LSRFortessa™ Cell Analyzer (BD Biosciences, Franklin Lake, NJ) with 1,000 minimum events collected per well. The AF647/APC-A GeoMean (fluorescence signal geometric mean, proportional to anti-Human AF647 binding) was calculated for the live cell population using FlowJo™ Version 10.8.1 (BD Biosciences, Franklin Lake, NJ) and plotted for each test antibody using GraphPad Prism Version 9 (GraphPad Software, San Diego, CA).

[5] = target: T1, human sodium-dependent phosphate …; test: flow cytometry, TOV-21G cells (endogenous NaPi2b); apparent Kd
Procedure: as §1, §2, §3

cynomolgus monkey NaPi2b = target: T3, cynomolgus monkey NaPi2b (cynomolgus monkey, UniProt O95436 1-690 (human entry)); test: flow cytometry on HEK293-6e cells transiently expressing cynomolgus NaPi2b, 4 C, anti-human IgG Fc AF647 detection
T3 construct: Transiently expressed on HEK293-6e cells; also called Cyno NaPi2b
T3 chain: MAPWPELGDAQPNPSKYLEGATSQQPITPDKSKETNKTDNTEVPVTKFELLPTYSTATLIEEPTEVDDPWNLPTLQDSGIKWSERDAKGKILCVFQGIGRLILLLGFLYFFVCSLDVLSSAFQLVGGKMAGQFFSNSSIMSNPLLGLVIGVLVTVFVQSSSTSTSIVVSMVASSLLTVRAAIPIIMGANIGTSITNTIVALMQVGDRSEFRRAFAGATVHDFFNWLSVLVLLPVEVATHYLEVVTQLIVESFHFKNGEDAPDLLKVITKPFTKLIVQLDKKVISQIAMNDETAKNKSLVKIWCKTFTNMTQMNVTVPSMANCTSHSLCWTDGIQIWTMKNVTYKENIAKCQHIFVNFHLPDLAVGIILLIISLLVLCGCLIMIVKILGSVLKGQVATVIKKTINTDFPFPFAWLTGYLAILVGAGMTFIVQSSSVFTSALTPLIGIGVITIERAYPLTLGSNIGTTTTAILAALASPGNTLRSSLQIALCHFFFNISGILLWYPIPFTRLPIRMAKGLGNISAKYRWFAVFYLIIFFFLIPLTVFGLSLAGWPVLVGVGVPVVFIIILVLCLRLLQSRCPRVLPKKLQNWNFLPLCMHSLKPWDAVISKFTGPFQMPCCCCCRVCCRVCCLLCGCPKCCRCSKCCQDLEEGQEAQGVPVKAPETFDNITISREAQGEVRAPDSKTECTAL

mouse NaPi2b = target: T4, mouse NaPi2b (mouse, UniProt Q9DBP0 1-697); test: flow cytometry on HEK293-6e cells transiently expressing mouse NaPi2b, 4 C, anti-human IgG Fc AF647 detection
T4 construct: Transiently expressed on HEK293-6e cells; also called Ms NaPi2b
T4 sequence: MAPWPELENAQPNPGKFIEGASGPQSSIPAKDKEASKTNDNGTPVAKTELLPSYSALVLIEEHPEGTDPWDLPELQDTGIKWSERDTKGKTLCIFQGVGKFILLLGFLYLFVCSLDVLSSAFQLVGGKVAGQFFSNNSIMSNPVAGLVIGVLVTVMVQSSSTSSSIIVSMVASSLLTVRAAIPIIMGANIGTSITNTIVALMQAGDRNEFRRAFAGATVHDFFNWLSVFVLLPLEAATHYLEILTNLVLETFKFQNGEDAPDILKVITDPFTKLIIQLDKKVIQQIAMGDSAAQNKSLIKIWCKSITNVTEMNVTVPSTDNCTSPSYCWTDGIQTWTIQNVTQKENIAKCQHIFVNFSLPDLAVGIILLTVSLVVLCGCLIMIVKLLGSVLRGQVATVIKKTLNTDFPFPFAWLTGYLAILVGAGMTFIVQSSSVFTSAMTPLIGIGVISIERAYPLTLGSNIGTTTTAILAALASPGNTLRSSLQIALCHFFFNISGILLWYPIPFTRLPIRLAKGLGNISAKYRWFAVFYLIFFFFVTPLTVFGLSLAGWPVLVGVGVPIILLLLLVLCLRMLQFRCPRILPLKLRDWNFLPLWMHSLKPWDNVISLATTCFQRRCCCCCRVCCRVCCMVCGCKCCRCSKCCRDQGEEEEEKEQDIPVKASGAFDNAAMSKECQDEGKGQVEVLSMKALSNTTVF

Binder | Kd [1] | EC50 (read off the curve) [2] | EC50 (read off the curve) [3] | binding result (FcgR1A) | Kd [4] | Kd [5] | binding result (cynomolgus monkey NaPi2b) | binding result (mouse NaPi2b)
B1 | 1.39 nM | ~0.7 nM | ~1 nM | binds | 1.68 nM | 0.74 nM |  | 
B2 |  |  |  |  |  |  | no binding (tested: about 200 nM) | no binding (tested: about 200 nM)
